Data reported in the supplement of paper PMC11246515.
± gives the standard deviation of the averaged measurements.

Assay: total protein half-life in vivo (active degradation + dilution); higher = more stable protein
[1] = E. coli NCM3722 delta-clpP delta-lon delta-hslV, growth: N-lim chemostat, doubling time 6 h
[2] = E. coli NCM3722 delta-clpP, growth: N-lim chemostat, doubling time 6 h
[3] = E. coli NCM3722 delta-hslV, growth: N-lim chemostat, doubling time 6 h
[4] = E. coli NCM3722 delta-lon, growth: N-lim chemostat, doubling time 6 h
[5] = E. coli NCM3722 delta-smpB, growth: N-lim chemostat, doubling time 6 h
[6] = wild type E. coli NCM3722, growth: C-lim chemostat, doubling time 3 h
[7] = wild type E. coli NCM3722, growth: C-lim chemostat, doubling time 6 h
[8] = wild type E. coli NCM3722, growth: C-lim chemostat, doubling time 12 h
[9] = wild type E. coli NCM3722, growth: N-lim chemostat, doubling time 6 h
[10] = wild type E. coli NCM3722, growth: N-lim chemostat, doubling time 12 h
[11] = wild type E. coli NCM3722, growth: P-lim chemostat, doubling time 6 h
[12] = wild type E. coli NCM3722, growth: P-lim chemostat, doubling time 12 h

Row | Sequence | total protein half-life in vivo [1] [h] | total protein half-life in vivo [2] [h] | total protein half-life in vivo [3] [h] | total protein half-life in vivo [4] [h] | total protein half-life in vivo [5] [h] | total protein half-life in vivo [6] [h] | total protein half-life in vivo [7] [h] | total protein half-life in vivo [8] [h] | total protein half-life in vivo [9] [h] | total protein half-life in vivo [10] [h] | total protein half-life in vivo [11] [h] | total protein half-life in vivo [12] [h]
1 | MSEGWNIAVLGATGAVGEALLETLAERQFPVGEIYALARNESAGEQLRFGGKTITVQDAAEFDWTQAQLAFFVAGKEATAAWVEEATNSGCLVIDSSGLFALEPDVPLVVPEVNPFVLTDYRNRNVIAVPDSLTSQLLAALKPLIDQGGLSRISVTSLISASAQGKKAVDALAGQSAKLLNGIPIDEEDFFGRQLAFNMLPLLPDSEGSVREERRIVDEVRKILQDEGLMISASVVQAPVFYGHAQMVNFEALRPLAAEEARDAFVQGEDIVLSEENEFPTQVGDASGTPHLSVGCVRNDYGMPEQVQFWSVADNVRFGGALMAVKIAEKLVQEYLY | 5.37 ± 0.42 | 4.6 ± 0.02 | 4.6 ± 0.11 | 4.9 ± 0.73 | 4.57 ± 0.048 | 3.02 ± 0.082 | 5.614 ± 0.008 | 9.85 ± 0.24 | 5.14 ± 0.59 | 8.99 ± 1.9 | 6.16 ± 0.097 | 11.9 ± 0.28
2 | MSEIKDVIVQGLWKNNSALVQLLGLCPLLAVTSTATNALGLGLATTLVLTLTNLTISTLRHWTPAEIRIPIYVMIIASVVSAVQMLINAYAFGLYQSLGIFIPLIVTNCIVVGRAEAFAAKKGPALSALDGFSIGMGATCAMFVLGSLREIIGNGTLFDGADALLGSWAKVLRVEIFHTDSPFLLAMLPPGAFIGLGLMLAGKYLIDERMKKRRAEAAAERALPNGETGNV | 2.66 ± 0.39 | 3.52 | 2.7 | 2.38 ± 0.21 | 4.72 ± 0.73 | 2.72 ± 0.066 | – | 5.17 | 3.33 | 5.84 ± 1.2 | 3.64 | –
3 | MSEIVIRHAETRDYEAIRQIHAQPEVYCNTLQVPHPSDHMWQERLADRPGIKQLVACIDGDVVGHLTIDVQQRPRRSHVADFGICVDSRWKNRGVASALMREMIEMCDNWLRVDRIELTVFVDNAPAIKVYKKYGFEIEGTGKKYALRNGEYVDAYYMARVK | 4.84 ± 0.053 | 3.7 ± 0.65 | 4.09 ± 0.13 | 4.56 ± 0.45 | 3.82 ± 0.33 | 3.03 ± 0.086 | 4.83 ± 0.18 | 10.4 ± 0.85 | 3.91 | 6.73 ± 0.38 | 5.26 ± 0.41 | 11.3 ± 0.22
4 | MSEKLQKVLARAGHGSRREIESIIEAGRVSVDGKIAKLGDRVEVTPGLKIRIDGHLISVRESAEQICRVLAYYKPEGELCTRNDPEGRPTVFDRLPKLRGARWIAVGRLDVNTCGLLLFTTDGELANRLMHPSREVEREYAVRVFGQVDDAKLRDLSRGVQLEDGPAAFKTIKFSGGEGINQWYNVTLTEGRNREVRRLWEAVGVQVSRLIRVRYGDIPLPKGLPRGGWTELDLAQTNYLRELVELPPETSSKVAVEKDRRRMKANQIRRAVKRHSQVSGGRRSGGRNNNG | 6.28 ± 0.59 | 5.65 ± 1.1 | 6.02 ± 0.61 | 5.92 ± 0.38 | 4.94 ± 0.081 | 2.92 ± 0.27 | 5.79 ± 0.66 | 10.4 ± 2.1 | 6.18 ± 1.5 | 9.66 ± 0.21 | 5.43 ± 0.43 | 10.6 ± 0.17
5 | MSEKPLTKTDYLMRLRRCQTIDTLERVIEKNKYELSDNELAVFYSAADHRLAELTMNKLYDKIPSSVWKFIR [P0ACE3] | 2.93 | – | – | – | – | – | 1.69 ± 0.43 | 0.865 | – | – | – | –
6 | MSEKTFLVEIGTEELPPKALRSLAESFAANFTAELDNAGLAHGTVQWFAAPRRLALKVANLAEAQPDREIEKRGPAIAQAFDAEGKPSKAAEGWARGCGITVDQAERLTTDKGEWLLYRAHVKGESTEALLPNMVATSLAKLPIPKLMRWGASDVHFVRPVHTVTLLLGDKVIPATILGIQSDRVIRGHRFMGEPEFTIDNADQYPEILRERGKVIADYEERKAKIKADAEEAARKIGGNADLSESLLEEVASLVEWPVVLTAKFEEKFLAVPAEALVYTMKGDQKYFPVYANDGKLLPNFIFVANIESKDPQQIISGNEKVVRPRLADAEFFFNTDRKKRLEDNLPRLQTVLFQQQLGTLRDKTDRIQALAGWIAEQIGADVNHATRAGLLSKCDLMTNMVFEFTDTQGVMGMHYARHDGEAEDVAVALNEQYQPRFAGDDLPSNPVACALAIADKMDTLAGIFGIGQHPKGDKDPFALRRAALGVLRIIVEKNLNLDLQTLTEEAVRLYGDKLTNANVVDDVIDFMLGRFRAWYQDEGYTVDTIQAVLARRPTRPADFDARMKAVSHFRTLDAAAALAAANKRVSNILAKSDEVLSDRVNASTLKEPEEIKLAMQVVVLRDKLEPYFTEGRYQDALVELAELREPVDAFFDKVMVMVDDKELRINRLTMLEKLRELFLRVADISLLQ | 6.02 ± 0.36 | 6.28 ± 0.94 | 5.56 ± 0.53 | 5.82 ± 0.65 | 5.74 ± 0.6 | 3.278 ± 0.0052 | 5.89 ± 0.085 | 11 ± 1 | 5.72 ± 0.31 | 10.5 ± 0.11 | 6.31 ± 0.44 | 12.2 ± 1.2
7 | MSELNDLLTTRELQRWRLILGEAAETTLCGLDDNARQIDHALEWLYGRDPERLQRGERSGGLGGSNLTTPEWINSIHTLFPQQVIERLESDAVLRYGIEDVVTNLDVLERMQPSESLLRAVLHTKHLMNPEVLAAARRIVCQVVEEIMARLAKEVRQAFSGVRDRRRRSFIPLARNFDFKSTLRANLQHWHPQHGKLYIESPRFNSRIKRQSEQWQLVLLVDQSGSMVDSVIHSAVMAACLWQLPGIRTHLVAFDTSVVDLTADVADPVELLMKVQLGGGTNIASAVEYGRQLIEQPAKSVIILVSDFYEGGSSSLLTHQVKKCVQSGIKVLGLAALDSTATPCYDRDTAQALVNVGAQIAAMTPGELASWLAENLQS | – | – | – | – | – | – | – | 12.9 | – | 8.61 | 6.39 | –
